Literature values in publication PMC3295331.
pKd: −log10 of the molar value.

Molecular target: Cav3.1 (UniProt O54898)
Sequence of UniProt O54898 (O54898 whole entry): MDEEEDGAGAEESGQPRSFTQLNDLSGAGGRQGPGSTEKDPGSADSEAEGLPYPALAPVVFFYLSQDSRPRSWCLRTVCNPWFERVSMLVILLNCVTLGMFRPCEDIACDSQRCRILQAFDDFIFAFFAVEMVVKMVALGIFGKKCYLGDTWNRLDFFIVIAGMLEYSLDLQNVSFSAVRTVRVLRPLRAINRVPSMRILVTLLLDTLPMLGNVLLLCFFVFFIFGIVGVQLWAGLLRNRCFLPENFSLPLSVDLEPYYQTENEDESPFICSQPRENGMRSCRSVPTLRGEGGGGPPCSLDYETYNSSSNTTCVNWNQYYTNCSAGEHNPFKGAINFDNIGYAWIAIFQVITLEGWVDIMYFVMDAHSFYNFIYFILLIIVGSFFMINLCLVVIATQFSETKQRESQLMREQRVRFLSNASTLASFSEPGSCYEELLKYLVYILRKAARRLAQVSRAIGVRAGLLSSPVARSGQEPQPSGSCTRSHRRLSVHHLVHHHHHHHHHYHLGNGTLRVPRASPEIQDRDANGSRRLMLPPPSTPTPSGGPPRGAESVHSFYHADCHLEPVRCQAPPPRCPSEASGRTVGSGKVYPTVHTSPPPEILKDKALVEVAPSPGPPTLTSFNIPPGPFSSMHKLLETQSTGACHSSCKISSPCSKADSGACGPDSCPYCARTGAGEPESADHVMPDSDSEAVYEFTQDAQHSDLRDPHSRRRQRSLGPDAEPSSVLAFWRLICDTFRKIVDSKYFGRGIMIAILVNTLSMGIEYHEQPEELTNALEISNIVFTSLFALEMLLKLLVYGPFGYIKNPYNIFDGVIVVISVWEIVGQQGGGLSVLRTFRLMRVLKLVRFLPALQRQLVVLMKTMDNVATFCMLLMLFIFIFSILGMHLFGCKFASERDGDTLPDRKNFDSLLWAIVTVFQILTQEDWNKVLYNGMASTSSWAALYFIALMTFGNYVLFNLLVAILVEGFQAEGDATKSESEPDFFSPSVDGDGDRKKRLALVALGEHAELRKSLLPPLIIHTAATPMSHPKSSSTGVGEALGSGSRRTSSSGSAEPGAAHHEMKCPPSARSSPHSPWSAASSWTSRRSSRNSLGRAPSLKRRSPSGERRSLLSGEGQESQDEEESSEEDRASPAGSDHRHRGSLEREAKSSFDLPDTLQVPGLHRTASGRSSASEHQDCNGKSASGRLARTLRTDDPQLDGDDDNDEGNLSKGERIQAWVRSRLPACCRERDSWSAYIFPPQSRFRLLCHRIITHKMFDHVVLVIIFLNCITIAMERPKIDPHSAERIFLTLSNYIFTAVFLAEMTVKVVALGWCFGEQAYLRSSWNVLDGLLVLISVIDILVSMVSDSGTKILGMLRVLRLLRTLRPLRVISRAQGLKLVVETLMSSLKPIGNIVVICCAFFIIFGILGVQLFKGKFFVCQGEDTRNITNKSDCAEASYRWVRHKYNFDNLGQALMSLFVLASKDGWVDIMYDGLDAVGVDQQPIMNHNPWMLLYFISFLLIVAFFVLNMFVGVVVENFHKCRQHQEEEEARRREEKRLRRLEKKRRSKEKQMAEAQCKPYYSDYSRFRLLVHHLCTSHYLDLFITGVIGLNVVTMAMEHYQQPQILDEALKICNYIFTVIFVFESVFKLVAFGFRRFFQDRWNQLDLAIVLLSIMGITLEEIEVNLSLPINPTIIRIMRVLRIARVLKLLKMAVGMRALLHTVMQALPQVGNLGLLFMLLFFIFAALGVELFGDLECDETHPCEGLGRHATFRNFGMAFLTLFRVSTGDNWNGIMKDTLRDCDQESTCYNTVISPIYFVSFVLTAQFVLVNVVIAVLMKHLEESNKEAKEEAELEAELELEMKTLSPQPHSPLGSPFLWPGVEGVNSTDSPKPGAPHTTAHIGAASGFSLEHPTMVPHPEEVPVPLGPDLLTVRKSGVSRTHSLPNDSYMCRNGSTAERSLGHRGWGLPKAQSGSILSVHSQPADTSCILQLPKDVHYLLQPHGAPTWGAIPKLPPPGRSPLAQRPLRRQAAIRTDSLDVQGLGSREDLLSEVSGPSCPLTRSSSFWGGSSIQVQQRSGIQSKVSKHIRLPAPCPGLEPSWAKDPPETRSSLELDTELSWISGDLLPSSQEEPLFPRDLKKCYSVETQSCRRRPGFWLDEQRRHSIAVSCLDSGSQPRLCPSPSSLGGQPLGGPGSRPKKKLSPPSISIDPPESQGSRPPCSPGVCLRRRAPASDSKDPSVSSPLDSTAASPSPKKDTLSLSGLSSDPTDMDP

Kurtoxin (from UniProt P58910)
pKd: 7.82
